Measurements taken from US7435413 (dated 2008).

Biological target: T1, sTF (soluble human tissue factor 1-219) (human)
T1 chain: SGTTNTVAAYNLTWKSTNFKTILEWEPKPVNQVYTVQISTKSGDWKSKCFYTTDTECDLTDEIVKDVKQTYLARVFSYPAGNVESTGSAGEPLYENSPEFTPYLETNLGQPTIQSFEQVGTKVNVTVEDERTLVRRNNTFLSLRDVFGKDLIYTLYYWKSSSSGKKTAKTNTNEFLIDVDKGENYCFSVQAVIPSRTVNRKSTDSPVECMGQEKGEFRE
Assay: SPR

B1: 5G6 (antibody, V domains shown)
VH: EVLLQQSGPELVKPGASVKIPCKASGYTFTEYNMDWVKQSHGKSLEWIGDINPNNGNTIYNQKFKGKATLTVDKSSTTAYLELRSLTSEDTAVYFCARDHDYYFDFWGQGTTLTVSS
VL: DIQMTQTPASQSASLGESVTITCLASQTIDTWLAWYQQKPGKSPQLLIYAATSLADGVPSRFSGSGSGTKFSFKISSLQAEDFVSYYCQQPYSSPYTFGGGTKLELKR
Kd: 1.7 nM
